Measurements as given in patent US20250084186A1 (published 2025).

Tests used:
human CD28 = human CD28 (human, UniProt P10747 19-152); assay: -; scFv VHVL, 1+1 Fab-scFv-Fc
cynomolgus ENPP3 [1] = target: T1, cynomolgus ENPP3 (cynomolgus, UniProt A0A2K5TKP4 49-874); assay: Biacore; steady state
T1 chain: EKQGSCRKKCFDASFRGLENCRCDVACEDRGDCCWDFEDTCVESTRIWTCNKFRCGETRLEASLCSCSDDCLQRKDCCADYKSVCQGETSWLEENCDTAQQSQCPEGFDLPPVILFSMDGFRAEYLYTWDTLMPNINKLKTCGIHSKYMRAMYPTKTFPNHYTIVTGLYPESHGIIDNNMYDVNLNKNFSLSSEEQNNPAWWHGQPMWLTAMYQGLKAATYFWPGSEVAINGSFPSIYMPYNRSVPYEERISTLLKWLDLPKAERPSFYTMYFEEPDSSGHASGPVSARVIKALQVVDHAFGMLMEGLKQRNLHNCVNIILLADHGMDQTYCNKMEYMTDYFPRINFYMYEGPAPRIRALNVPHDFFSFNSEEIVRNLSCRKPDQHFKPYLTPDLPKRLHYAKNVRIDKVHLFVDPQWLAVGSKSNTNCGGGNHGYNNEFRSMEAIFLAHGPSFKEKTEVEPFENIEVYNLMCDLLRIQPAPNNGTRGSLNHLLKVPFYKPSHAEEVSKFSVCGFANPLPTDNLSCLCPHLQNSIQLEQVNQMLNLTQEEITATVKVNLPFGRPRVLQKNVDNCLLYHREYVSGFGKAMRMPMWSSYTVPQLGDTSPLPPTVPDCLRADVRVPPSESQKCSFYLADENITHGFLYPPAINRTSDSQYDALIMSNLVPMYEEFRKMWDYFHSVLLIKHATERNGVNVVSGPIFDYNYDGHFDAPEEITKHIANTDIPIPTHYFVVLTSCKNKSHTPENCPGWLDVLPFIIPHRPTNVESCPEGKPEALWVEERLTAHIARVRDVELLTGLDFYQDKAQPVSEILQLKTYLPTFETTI

Human ENPP3 [2] = assay: Biacore; steady state
cynomolgus ENPP3 [3] = target: T1, cynomolgus ENPP3; assay: Biacore; kinetics
Human ENPP3 [4] = assay: Biacore; kinetics
[5] = target: Ha16-1(3,5)18[ENPP3]_H1L1; assay: Biacore; kinetics
Ha16-1(3,5)5[ENPP3]_H1L1 [6] = assay: Biacore; kinetics
ENPP3-A[ENPP3]_H1L1 [7] = assay: Biacore; kinetics
[8] = target: Ha16-1(3,5)18[ENPP3]_H1L1; assay: Biacore; steady state
Ha16-1(3,5)5[ENPP3]_H1L1 [9] = assay: Biacore; steady state
ENPP3-A[ENPP3]_H1L1 [10] = assay: Biacore; steady state

B1: H1.14_L1 (antibody, V domains shown)
VH: EVQLLESGGGLVQPGGSLRLSCAASGFTFSSYAMSWVRQAPGKGLEWVSTISGSGDSTYYADSVKGRFTISRDNSKNTLYLQMNSLRAEDTAVYYCAKSGPGLRQVGFDYWGQGTLVTVSS
VL: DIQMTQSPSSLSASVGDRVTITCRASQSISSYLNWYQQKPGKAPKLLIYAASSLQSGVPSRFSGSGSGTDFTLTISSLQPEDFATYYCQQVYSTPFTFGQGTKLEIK
With B1 the Kd (human CD28) was 230 nM.

B2: H1.1_L1.71 (antibody, V domains shown)
VH: EVQLLESGGGLVQPGGSLRLSCAASGFTFSSYYMSWVRQAPGKGLEWVSTISESGDSTYYADSVKGRFTISRDNSKNTLYLQMNSLRAEDTAVYYCAKSGPGLRQVGFDYWGQGTLVTVSS
VL: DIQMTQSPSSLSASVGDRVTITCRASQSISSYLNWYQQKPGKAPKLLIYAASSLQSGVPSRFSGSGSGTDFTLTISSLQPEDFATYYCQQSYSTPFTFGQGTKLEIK
B2 was tested, and the Kd (human CD28) was 96 nM.

B3: H1.1_L1 (antibody, V domains shown)
VH: EVQLLESGGGLVQPGGSLRLSCAASGFTFSSYYMSWVRQAPGKGLEWVSTISGSGDSTYYADSVKGRFTISRDNSKNTLYLQMNSLRAEDTAVYYCAKSGPGLRQVGFDYWGQGTLVTVSS
VL: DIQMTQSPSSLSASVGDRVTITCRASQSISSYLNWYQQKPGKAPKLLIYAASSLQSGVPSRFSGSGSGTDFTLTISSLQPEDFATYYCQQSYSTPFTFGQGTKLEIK
Binder B3 has a Kd (human CD28) of 600 nM.

B4: H1.14_L1.71 (antibody, V domains shown)
VH: EVQLLESGGGLVQPGGSLRLSCAASGFTFSSYYMSWVRQAPGKGLEWVSTISESGDSTYYADSVKGRFTISRDNSKNTLYLQMNSLRAEDTAVYYCAKSGPGLRQVGFDYWGQGTLVTVSS
VL: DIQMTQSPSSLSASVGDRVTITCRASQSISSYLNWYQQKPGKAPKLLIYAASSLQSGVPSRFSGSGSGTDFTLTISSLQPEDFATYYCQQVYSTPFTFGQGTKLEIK
B4 showed a Kd (human CD28) of 37 nM.

B5: H1L1 (antibody, V domains shown)
VH: EVQLLESGGGLVQPGGSLRLSCAASGFTFSSYAMSWVRQAPGKGLEWVSTISGSGDSTYYADSVKGRFTISRDNSKNTLYLQMNSLRAEDTAVYYCAKSGPGLRQVGFDYWGQGTLVTVSS
VL: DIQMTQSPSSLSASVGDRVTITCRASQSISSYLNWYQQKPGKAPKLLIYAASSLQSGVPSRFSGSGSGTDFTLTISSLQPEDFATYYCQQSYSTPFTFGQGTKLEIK
Binder B5 has a Kd (human CD28) of 1000 nM.

B6: H1_L1.71 (antibody, V domains shown)
VH: EVQLLESGGGLVQPGGSLRLSCAASGFTFSSYYMSWVRQAPGKGLEWVSTISGSGDSTYYADSVKGRFTISRDNSKNTLYLQMNSLRAEDTAVYYCAKSGPGLRQVGFDYWGQGTLVTVSS
VL: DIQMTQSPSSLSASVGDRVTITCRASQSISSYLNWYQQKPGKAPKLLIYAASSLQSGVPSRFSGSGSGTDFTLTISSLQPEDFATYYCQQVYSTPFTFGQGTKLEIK
B6 showed a Kd (human CD28) of 180 nM.

B7: AN1[ENPP3]_H1_L1.33 (antibody, V domains shown)
VH: EVQLVESGGGLVQPGGSLRLSCAASGFAFSNYGMSWVRQAPGKRLEWVSYISSGGGTTYYLDSVKGRFTISRDNAKNSLYLQMNSLRAEDTAVYYCARHRRVYYGYYFDYWGQGTLVTVSS
VL: DILLTQSPDFQSVTPKEKVTITCRASQSIGTSIHWYQQKPDQSPKLLIEYASESISGIPSRFSGSGSGTDFTLTINSLEAEDAATYYCQQSNSWPYTFGGGTKLEIK
B7 was tested, and the Kd (cynomolgus ENPP3 [1]) was 1200 nM, the Kd (Human ENPP3 [2]) was 170 nM and the Kd (cynomolgus ENPP3 [3]) was 1800 nM. The Kd (Human ENPP3 [4]) was 74 nM.

B8: AN1[ENPP3]_H1L1 (antibody, V domains shown)
VH: EVQLVESGGGLVQPGGSLRLSCAASGFAFSNYGMSWVRQAPGKRLEWVSYISSGGGTTYYLDSVKGRFTISRDNAKNSLYLQMNSLRAEDTAVYYCARHRRVYYGYYFDYWGQGTLVTVSS
VL: DILLTQSPDFQSVTPKEKVTITCRASQSIGTSIHWYQQKPDQSPKLLIKYASESISGIPSRFSGSGSGTDFTLTINSLEAEDAATYYCQQSNSWPYTFGGGTKLEIK
Binder B8 has a Kd (cynomolgus ENPP3 [1]) of 470 nM, a Kd (Human ENPP3 [2]) of 35 nM and a Kd (cynomolgus ENPP3 [3]) of 460 nM. It also gave a Kd (Human ENPP3 [4]) of 9 nM.

B9: Cyno ENPP3 (enzyme)
chain: EKQGSCRKKCFDASFRGLENCRCDVACEDRGDCCWDFEDTCVESTRIWTCNKFRCGETRLEASLCSCSDDCLQRKDCCADYKSVCQGETSWLEENCDTAQQSQCPEGFDLPPVILFSMDGFRAEYLYTWDTLMPNINKLKTCGIHSKYMRAMYPTKTFPNHYTIVTGLYPESHGIIDNNMYDVNLNKNFSLSSEEQNNPAWWHGQPMWLTAMYQGLKAATYFWPGSEVAINGSFPSIYMPYNRSVPYEERISTLLKWLDLPKAERPSFYTMYFEEPDSSGHASGPVSARVIKALQVVDHAFGMLMEGLKQRNLHNCVNIILLADHGMDQTYCNKMEYMTDYFPRINFYMYEGPAPRIRALNVPHDFFSFNSEEIVRNLSCRKPDQHFKPYLTPDLPKRLHYAKNVRIDKVHLFVDPQWLAVGSKSNTNCGGGNHGYNNEFRSMEAIFLAHGPSFKEKTEVEPFENIEVYNLMCDLLRIQPAPNNGTRGSLNHLLKVPFYKPSHAEEVSKFSVCGFANPLPTDNLSCLCPHLQNSIQLEQVNQMLNLTQEEITATVKVNLPFGRPRVLQKNVDNCLLYHREYVSGFGKAMRMPMWSSYTVPQLGDTSPLPPTVPDCLRADVRVPPSESQKCSFYLADENITHGFLYPPAINRTSDSQYDALIMSNLVPMYEEFRKMWDYFHSVLLIKHATERNGVNVVSGPIFDYNYDGHFDAPEEITKHIANTDIPIPTHYFVVLTSCKNKSHTPENCPGWLDVLPFIIPHRPTNVESCPEGKPEALWVEERLTAHIARVRDVELLTGLDFYQDKAQPVSEILQLKTYLPTFETTI
In the case of B9, the Kd [5] is reported as 110 nM, the Kd (Ha16-1(3,5)5[ENPP3]_H1L1 [6]) is reported as 21 nM and the Kd (ENPP3-A[ENPP3]_H1L1 [7]) is reported as 320 nM. The Kd [8] was 140 nM, the Kd (Ha16-1(3,5)5[ENPP3]_H1L1 [9]) was 70 nM and the Kd (ENPP3-A[ENPP3]_H1L1 [10]) was 330 nM.
